{"source": "paper PMC2064158", "about": "(The Journal of Cell Biology, 2006)", "binders": {"B1": {"name": "HsCdc20^111–138 synthetic peptide (peptide)", "peptide": "EHQKAWALNLNGFDVEEAKILRLSGKPQ"}, "B2": {"name": "ScMad2^wt (recombinant S. cerevisiae Mad2, wild type) (natural protein)", "chain": "MSQSISLKGSTRTVTEFFEYSINSILYQRGVYPAEDFVTVKKYDLTLLKTHDDELKDYIRKILLQVHRWLLGGKCNQLVLCIVDKDEGEVVERWSFNVQHISGNSNGQDDVVDLNTTQSQIRALIRQITSSVTFLPELTKEGGYTFTVLAYTDADAKVPLEWADSNSKEIPDGEVVQFKTFSTNDHKVGAQVSYKY"}, "B3": {"name": "GST-ScMad1^563–590 (domain or fragment)", "chain": "QLLQEKLEKLTKLKEKKIRILQLRDGPF"}, "B4": {"name": "ScCdc20^195–211 synthetic peptide (peptide)", "peptide": "GLDMNKRILQYMPEPPK"}, "B5": {"name": "GST-ScCdc20^184–210 (domain or fragment)", "chain": "IVFKQNVAEACGLDMNKRILQYMPEPP"}, "B6": {"name": "ScMad2^ΔC (recombinant, six residues deleted from the C terminus) (domain or fragment)", "chain": "MSQSISLKGSTRTVTEFFEYSINSILYQRGVYPAEDFVTVKKYDLTLLKTHDDELKDYIRKILLQVHRWLLGGKCNQLVLCIVDKDEGEVVERWSFNVQHISGNSNGQDDVVDLNTTQSQIRALIRQITSSVTFLPELTKEGGYTFTVLAYTDADAKVPLEWADSNSKEIPDGEVVQFKTFSTNDHKVGA"}}, "key": {"AlexaFluor488-HsMad2^wt": {"biological_target": "AlexaFluor488-HsMad2^wt (human, UniProt Q13257 1-205, AlexaFluor488, covalent)", "sequence (Q13257 whole entry)": "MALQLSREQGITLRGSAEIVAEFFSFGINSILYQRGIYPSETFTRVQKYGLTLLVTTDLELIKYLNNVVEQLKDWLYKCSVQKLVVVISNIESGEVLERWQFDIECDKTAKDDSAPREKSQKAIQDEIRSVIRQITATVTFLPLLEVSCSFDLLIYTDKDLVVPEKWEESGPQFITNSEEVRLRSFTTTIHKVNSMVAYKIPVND", "assay": "SEC"}, "[1]": {"biological_target": "C-Mad2^wt–Cdc20^195–211 complex (S. cerevisiae, UniProt P40958;P26309)", "assay": "SEC"}, "[2]": {"biological_target": "B2", "assay": "pull-down"}, "[3]": {"biological_target": "T1, ScMad2^RQEA (recombinant, Arg126-Glu/Gln127-Ala) (S. cerevisiae, UniProt P40958 1-196, R126E | Q127A)", "T1 sequence": "B2 chain with R126E, Q127A", "assay": "ITC"}, "AlexaFluor488-ScMad2^wt": {"biological_target": "T2, AlexaFluor488-ScMad2^wt (S. cerevisiae, UniProt P40958 1-196, AlexaFluor488 succimidyl ester reactive dye, covalent, final dye/protein ratio ~0.5)", "T2 sequence": "B2 chain", "assay": "SEC"}, "[4]": {"biological_target": "B2", "assay": "SEC"}}, "note": "Numbering of substitutions follows the chain as printed.", "data": [{"binder": "B1", "values": [{"measurement": "binding result", "setting": "AlexaFluor488-HsMad2^wt", "result": "binds"}]}, {"binder": "B2", "values": [{"measurement": "percent of total Mad2 in the dimer peak at a 4:1 Mad2/Cdc20^195–211 ratio", "setting": "[1]", "result": "~50", "unit": "%"}]}, {"binder": "B3", "values": [{"measurement": "binding result", "setting": "[2]", "result": "binds"}]}, {"binder": "B4", "values": [{"measurement": "binding result", "setting": "[3]", "result": "binds"}, {"measurement": "binding result", "setting": "AlexaFluor488-ScMad2^wt", "result": "binds"}]}, {"binder": "B5", "values": [{"measurement": "binding result", "setting": "[2]", "result": "binds"}]}, {"binder": "B6", "values": [{"measurement": "binding result", "setting": "[4]", "result": "binds"}]}]}
